Measured values: publication PMC4850247

Columns and labels:
[1] = target: Full-length human OTUD2 (human) (UniProt Q5VVQ6); experiment: covalent labelling with an active site-directed probe (SDS-PAGE, fluorescence scan); 0.2 μM OTUD2 with 2 μM TAMRA-labeled mUb-PA or diUb-PA probes, time course, 30°C, 20 mM Tris-HCl pH 7.5, 150 mM NaCl; bands quantified and fitted by pseudo-first-order one-phase association, plateau forced to that of K11
[2] = target: Full-length human OTUD2 (human) (UniProt Q5VVQ6)
[3] = target: OTUD3 (aa 52-209) (human) (UniProt Q5T2D3)
[4] = target: Full-length human OTUD2 (human) (UniProt Q5VVQ6); experiment: covalent labelling with an active site-directed probe (SDS-PAGE, fluorescence scan); 0.1 μM OTUD2 constructs with 1 μM TAMRA-labeled K11-linked diUb-PA, time course up to 60 min, bands quantified
[5] = target: OTUD2 OTU (aa 147-314) (human) (UniProt Q5VVQ6); experiment: as above

UniProt Q5T2D3, sequence (Q5T2D3 52-209): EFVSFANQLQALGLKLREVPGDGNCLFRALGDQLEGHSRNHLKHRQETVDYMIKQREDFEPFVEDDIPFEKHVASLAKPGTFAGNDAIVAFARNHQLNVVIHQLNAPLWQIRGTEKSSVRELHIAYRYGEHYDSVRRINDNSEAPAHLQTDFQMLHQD

t1/2 of covalent probe labelling [1] [min] | KM of AMC release from diUb-AMC (Michaelis-Menten, 15 nM OTUD2, substrate up to 20 μM) [2] [µM] | KM of AMC release from diUb-AMC (Michaelis-Menten, 15 nM OTUD3) [3] [µM] | Substance | other results
8.5 | – | – | TAMRA-labeled K33 triazole-linked diUb-PA probe (from UniProt P0CG48 1-75; P0CG48 1-75) | –
– | 100 | – | K33 triazole-linked diUb-AMC substrate (from UniProt P0CG48 1-76) | –
– | 20 | 3.7 | K11 triazole-linked diUb-AMC substrate (from UniProt P0CG48 1-76) | –
3.5 | – | – | TAMRA-labeled K11 triazole-linked diUb-PA probe (from UniProt P0CG48 1-75; P0CG48 1-75) | t1/2 of covalent probe labelling [4]: 5.3 min; t1/2 of covalent probe labelling [5]: 6.8 min
– | – | 4.7 | K27 triazole-linked diUb-AMC substrate (from UniProt P0CG48 1-76) | –
